# Assay results reported in US20110124706A1, “SOCS3 Inhibition Promotes CNS Neuron Regeneration” (priority 2009, published 2011).
# Entries after “also recorded” stand apart in the source; their conditions may differ.
# Tested on: injured optic nerve axons
# Assay: optic nerve crush injury, axon regeneration assessed by CTB anterograde tracing
# Format: in vivo, mice
# Details: intravitreal 1 μl CNTF (1 μg/μl) immediately before and 3 days after injury
# Procedure: We applied optic nerve crush injury to assess axon growth ability in adult CNS in different conditional floxed mice (Park et al., 2008 Science 322, 963-966). Intravitreal application of recombinant adeno-associated viruses expressing Cre (AAVCre) results in Cre-dependent reporter expression in more than 90% of RGCs. Regeneration was assessed in the injured optic nerve axons by using cholera toxin beta subunit (CTB), an anterograde tracer, which was injected into the vitreous of the retina following optic nerve injury two days prior to histological analyses. Neuronal survival was assessed using whole-mount staining of the retinal tissue by immunostaining with an anti-β-III tubulin antibody, a commonly used marker of RGCs.
# We intravitreously injected 1 μl CNTF (1 μg/μl) immediately before injury and 3 days after injury (PBS injection was used as control).
molecule,measurement,setting,value
"ciliary neurotrophic factor (protein, UniProt P26441 1-200, looked up) Ciliary neurotrophic factor: MAFTEHSPLTPHRRDLCSRSIWLARKIRSDLTALTESYVKHQGLNKNINLDSADGMPVASTDQWSELTEAERLQENLQAYRTFHVLLARLLEDQQVHFTPTEGDFHQAIHTLLLQVAAFAYQIEELMILLEYKIPRNEADGMPINVGDGGLFEKKLWGLKVLQELSQWTVRSIHDLRFISSHQTGIPARGSHYIANNKKM",numbers and lengths of regenerating axons,SOCS3 deleted mice,dramatic increase; also recorded: further enhances
same,axon regeneration,control mice (SOCS3f/f with AAV-GFP),limited degree of axon regeneration
